According to the supplement of paper PMC9170038:

Test system: MS2 coat protein
Assay: apparent KD of MS2 coat protein; designed switch direction (-1 OFF switch, 1 ON switch): -1; higher = weaker reporter binding
How it was run: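 RNA switches sharing common flanks were transcribed by stalled E. coli RNA polymerase on Illumina chips. A doubling series of SNAP-549-labelled MS2 coat protein, from 0.7 or 1.5 nM to 3 µM, was applied in Tris-HCl pH 7.5 buffer with KCl, MgCl2, BSA, DTT, tRNA and Tween-20. Each step lasted 0.8–1.5 h at the bottom of the series and 10–20 min at the top. Normalised cluster fluorescence was curve-fitted, giving apparent KD as the per-design median over clusters.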

[1] = input ligand: microRNA oligo, concentration not stated
[2] = Eterna round: R95, input ligand: FMN 200 uM
[3] = Eterna round: R95, input ligand: microRNA oligo, concentration not stated
[4] = Eterna round: R95, input ligand: none

Sequence	apparent KD of MS2 coat protein (input ligand: FMN 200 uM)	apparent KD of MS2 coat protein [1]	apparent KD of MS2 coat protein (input ligand: none)	apparent KD of MS2 coat protein [2]	apparent KD of MS2 coat protein [3]	apparent KD of MS2 coat protein [4]
AAAGUGGGCCAGAACAUGAGGAUCACCCAUGUCUGAAAUAGCAAGGAUAUUACGAGCAAAAGGAGUAAGAAGGUGCACAGUACG [Eternabot solution 41] (Eterna round: R96, puzzle: Exclusion NG 3)	24 nM	15.4 nM	23.6 nM			
AAAUAAUAGAUAAAAUAAAACAUGAGGAUCACCCAUGUGGGAUGAUGAGGGUGAAACAAGCUUUUUGCUCGUCUUAU (puzzle: Sensor v3, turn-off variant 1)				386 nM	919 nM	439 nM
AAAUAAUAGAUAAAAUAAUACAUGAGGAUCACCCAUGUGGGAUGUUGAGGGUGAUACAGGCUUUUUGCUCGUCUUAU (puzzle: Sensor v3, turn-off variant 1)				434 nM	155 nM	207 nM
AAAUACAAGCAAAGAUCUUACAUGAGGAUCACCCAUGUGUUCGUCUUAUAAAGUACUAUCACGAAAGUGAUAGUACA [Sensor 3, v1 - 32] (puzzle: Sensor v3, turn-off variant 1)				14 nM	89.7 nM	15.4 nM
AAAUACAAGUAAAGAUCCUACAUGAGGAUCACCCAUGUGCUCGUUUUAUAAAGUACUAUCACGAAAGUGAUAGUACA [Sensor 3, v1 - 23] (puzzle: Sensor v3, turn-off variant 1)				900 nM	4.81 nM	435 nM
AAAUAGCAUGAGGAUAUUGAACUGUAUACAGUACGAGAAGGCAUGACAUGAGGAUCACCCAUGUUUUGUUGGGA [EX6 #4] (Eterna round: R97, puzzle: Exclusion 6)	119 nM		49 nM			
AAAUAGUGAGGAUAUUAGUUGUACGUCAAUAGACGUAUAAGUGAGAAGGCACAUGAGGAUCACCCAUGUUCCUG [Omei Ex4 Mod of Mat's R95 mod of Omei v8] (Eterna round: R97, puzzle: Exclusion 4)	34.4 nM		18.3 nM			
AAAUAUCAUGUAGGAUAUGGAAGGCGAACCUAUCCAGAAGGACAUGAGGAUCACCCAUGUGCUGCGUUGUCCGUAGACAGCGCU [Ex NG1 #2] (Eterna round: R96, puzzle: Exclusion NG 1)	88.2 nM	21.1 nM	31.4 nM			
AAAUCCCGAGGAUAUACAUGAGGAUCACCCAUGUAAUCAAACAGGGCAAAUUGAUCCGGUAGAAGGCGGACAAU [EX3 A.26] (Eterna round: R97, puzzle: Exclusion 3)	26.6 nM		13.5 nM			
AAAUGACAUGAGGAUCACCCAUGUGGCCCUUAGACUCAUAUCGAGGAUAUCCAGGGCCGGGCCGUGGAGAAGGCGAAUUAAAAU [Edatriusti] (Eterna round: R96, puzzle: Exclusion NG 3)	32.1 nM	26.1 nM	40.6 nM			
AAAUGCAGGUAAAGAUUCUACAUGAGGAUCACCCAUGUGCUCGUCUUAUAAAGUACUAUCACGAAAGUGAUAGUACA [Sensor 3, v1 - 41] (puzzle: Sensor v3, turn-off variant 1)				27.6 nM	268 nM	26.6 nM
AAAUUAGCAAGUAGGUCCGACAUGAGGAUCACCCAUGUAAUCUAAUAUUACGCUGCAUGAGAGUGCGCUCGUCUUAA [Sensor-V1 #18] (Eterna round: R97, puzzle: Sensor, turn-off variant 1)	196 nM		220 nM			
AAAUUGGUAGAGGAUAUCGCACAGGAAACACUGCGAGAAGGCUGCACAUGAGGAUCACCCAUGUUCAGUUGCGA [EX6 #38] (Eterna round: R97, puzzle: Exclusion 6)	16.7 nM		14.8 nM			
AAAUUGGUAGAGGAUAUCGUACAGGAAACGGUGCGAGAAGGUUGCACAUGAGGAUCACCCAUGUUAAGUUGCGA [EX6 #45] (Eterna round: R97, puzzle: Exclusion 6)	24.1 nM		26.8 nM			
AAAUUGUCAGGAUAUUGUUAGUUUAGUUGUUUGUAUUAGUUCGAGAAGGGACAUGAGGAUCACCCAUGUGAAAA [Ex4 #69] (Eterna round: R97, puzzle: Exclusion 4)	38.3 nM		41.5 nM			
AAAUUGUGAGGAUAUUCGAUGAACACGGAGACGUGUUUAUCGGAGAAGGCACAUGAGGAUCACCCAUGUUCCUU [Mat - Exclusion 4 - JL Mod - D24] (Eterna round: R97, puzzle: Exclusion 4)	80.4 nM		16.3 nM			
AAAUUGUGAGGAUAUUCGAUGAACUCGGAGACGAGUUUAUCGGAGAAGGCACAUGAGGAUCACCCAUGUUCCUU [Mat - Exclusion 4 - JL Mod - D23] (Eterna round: R97, puzzle: Exclusion 4)	102 nM		18.5 nM			

Sequence	apparent KD of MS2 coat protein (input ligand: FMN 200 uM)	apparent KD of MS2 coat protein [1]	apparent KD of MS2 coat protein (input ligand: none)	apparent KD of MS2 coat protein [2]	apparent KD of MS2 coat protein [3]	apparent KD of MS2 coat protein [4]
AACAAGCUAGGAUAUACAUGAGGAUCACCCAUGUGCGACUGAUGUCCCGUGGUUGAGGGUAGAAGGAGCGAAAG [Qucelexe] (puzzle: Exclusion 3)				239 nM	210 nM	226 nM
AACAAGCUUUAAAGAUCCCACAUGAGGAUCACCCAUGUGCUCGUCUUGUAACGUACUGUGACGAAAGUCACGGUACG [JL TOV1 3.28] (Eterna round: R97, puzzle: Sensor, turn-off variant 1)	24.6 nM		23.9 nM			
AACACACAUGAGGAUCACCCAUGUGAGGAUAUCGUCGAGGAUGUAAUGCCAUCCGUGACGAGAAGGCACUUGGG [Exclusion 1 (Mod 3 solution 40 by Eternabot)] (Eterna round: R97, puzzle: Exclusion 1)	58.8 nM		211 nM			
AACAGUACAGGAUAUACAUGAGGAUCACCCAUGUGAGAAUUAUGUGGCGUACCACAAAGUAGAAGGGUACUGGA [JL Maslow Revisted mod 3] (Eterna round: R96, puzzle: Exclusion 3)	497 nM	61.3 nM	69.6 nM			
AACAGUCUAGAGGAUAUGCUGGAUUAAUAUCUGGCAGAAGGCUGGACAUGAGGAUCACCCAUGUAAAUACUACC [Omei Ex6 A1] (Eterna round: R97, puzzle: Exclusion 6)	137 nM		44.3 nM			
AACCAGAUGAAACACAGGCACAUGAGGAUCACCCAUGUCUUAGAGCAUUCGGGUAAUCGGCUCGUUUUAAUUAGAAC [Eternabot (L1) Solution 22] (Eterna round: R97, puzzle: Sensor, turn-off variant 1)	279 nM		344 nM			
AACCAGCGAGGAUAUGCUUGAGCUUGUUCUGGUCAGAAUCGACUUGAGGAUCACCCAAGUAGAAGGUGCUGACG [EX2 #60] (Eterna round: R97, puzzle: Exclusion 2)	18.7 nM		16.9 nM			
AACCAGCGAGGAUAUGCUUGCGCGUGUUCUGGUUAUAAUCGACUUGAGGAUCACCCAAGUAGAAGGUGCUGGCG [EX2 #55] (Eterna round: R97, puzzle: Exclusion 2)	360 nM		147 nM			
AACCAUGAGCGAGGAUAUCACCCUACGGAGUGGUGAGAAGGCGCAACAUGAGGAUCACCCAUGUACAAAUGCGGGACCCUUUUC [Zaorredila] (Eterna round: R96, puzzle: Exclusion NG 1)		21.6 nM				
AACCCUAGGGUCAGACGCACAAGCUUUUUGCUCGUUUUAACAUGAGGAUCACCCAUGUCUAGUGGAUCUGAUCGGGC [Isreen] (puzzle: Sensor v3, turn-off variant 2)				24.7 nM	137 nM	26.2 nM
AACCUAGUCAUAGGAUAUACAGGCAAAGCCAAAGUAGAAGGAUGACACAUGAGGAUCACCCAUGUGGUCCUUGAACAAAAUAAC [Esatier] (Eterna round: R96, puzzle: Exclusion NG 1)		24.1 nM				
AACCUGAGGCAAAGCUUUAGGUGUACAUGAGGAUCACCCAUGUAGGAUAUGGUAGGCAAAGCUUACCAGAAGGACAUGUUAAUU [Mat - Exclusion NG 3 - Mod of JL - D38] (Eterna round: R96, puzzle: Exclusion NG 3)	172 nM	61.5 nM	67 nM			
AACGACUGAGGAUAUACAUGAGGAUCACCCAUGUAUUGAAAUACGUGCUUGGUCAACUGUAGAAGGCAGAAUAA [Oresza] (puzzle: Exclusion 3)					15.9 nM	
AACGUGCUGCGAGGAUAUACAUGAGGAUCACCCAUGUGGAUGUCUGAGGCAAAGCCUCAGACAAUGUAGAAGGCGCAGUACGAA [Mat - Exclusion NG 2 - Mod of JL - D57] (Eterna round: R96, puzzle: Exclusion NG 2)	72.5 nM	18.7 nM	19.6 nM			
AACUAGUCAGGAUAUACGAACAUGUCAAAAAACAUAAAGGGACAUGAGGAUCACCCAUGUAGAAGGGACUAGCA [74%, Web mod - With 4 less G's] (Eterna round: R96, puzzle: Exclusion 2)		150 nM				
AACUAUUUAGGAUAUCAGGCGAACCACAUGAGGAUCACCCAUGUGGCCCGUUGUGGUCCUUGAGAAGGAAAGAGUU [EX5 B.15] (Eterna round: R97, puzzle: Exclusion 5)	53.5 nM		22.7 nM			
AACUGUCUAAAGGAUAUGCUGGAUUAAUAUCUGGCAGAAGGUUAGACAUGAGGAUCACCCAUGUAAAUACCACC [Omei Ex6 A10] (Eterna round: R97, puzzle: Exclusion 6)	106 nM		19.5 nM			
